The values that follow come from patent US20240084003A1 (SIMCERE ZAIMING PHARMACEUTICAL, published 2024).

In test [1] the target is T1, murine CD22 protein (ACROBiosystems, SI2-M52Ha) (murine, UniProt P35329 22-708).
T1 construct: extracellular domain; also called murine CD22-ECD; murine CD22-ECD-His
T1 sequence (looked up): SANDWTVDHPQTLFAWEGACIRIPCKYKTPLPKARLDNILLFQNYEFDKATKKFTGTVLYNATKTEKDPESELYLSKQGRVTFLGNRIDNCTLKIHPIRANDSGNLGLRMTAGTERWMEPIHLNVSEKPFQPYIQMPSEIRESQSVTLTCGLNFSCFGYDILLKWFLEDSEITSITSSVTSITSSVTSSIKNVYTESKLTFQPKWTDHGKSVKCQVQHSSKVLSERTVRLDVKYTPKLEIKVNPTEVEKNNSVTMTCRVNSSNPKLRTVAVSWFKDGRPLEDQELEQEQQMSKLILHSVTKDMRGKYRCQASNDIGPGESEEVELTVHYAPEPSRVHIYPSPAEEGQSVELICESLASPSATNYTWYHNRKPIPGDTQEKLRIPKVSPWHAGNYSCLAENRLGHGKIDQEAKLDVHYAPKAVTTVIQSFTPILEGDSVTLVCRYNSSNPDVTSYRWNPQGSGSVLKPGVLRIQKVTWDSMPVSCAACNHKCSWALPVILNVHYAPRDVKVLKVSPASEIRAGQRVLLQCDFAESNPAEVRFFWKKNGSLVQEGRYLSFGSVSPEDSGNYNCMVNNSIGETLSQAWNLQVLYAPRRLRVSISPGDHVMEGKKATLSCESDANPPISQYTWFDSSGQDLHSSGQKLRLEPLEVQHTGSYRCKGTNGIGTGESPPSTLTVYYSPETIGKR
The test can be described thus: ELISA, murine CD22-ECD-His coated. Put shortly: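 First, CD22 (2 μg/mL, PBS) was coated at 4° C overnight. Second, wells were blocked with PBS containing 2% BSA for 2 h at room temperature. Third, antibody and then HRP secondary were each incubated 2 h at 37° C. Finally, TMB colour was stopped with HCl.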
Background: An ELISA detects its analyte on a solid surface through an enzyme-linked reagent.

The target of test [2] is T2, monkey CD22 protein (ACROBiosystems, SI2-R52Ha) (monkey (rhesus monkey in paragraph 148), UniProt H9G1X2 18-686).
T2 construct: extracellular domain; also called monkey CD22-ECD; monkey CD22-ECD-His
T2 sequence: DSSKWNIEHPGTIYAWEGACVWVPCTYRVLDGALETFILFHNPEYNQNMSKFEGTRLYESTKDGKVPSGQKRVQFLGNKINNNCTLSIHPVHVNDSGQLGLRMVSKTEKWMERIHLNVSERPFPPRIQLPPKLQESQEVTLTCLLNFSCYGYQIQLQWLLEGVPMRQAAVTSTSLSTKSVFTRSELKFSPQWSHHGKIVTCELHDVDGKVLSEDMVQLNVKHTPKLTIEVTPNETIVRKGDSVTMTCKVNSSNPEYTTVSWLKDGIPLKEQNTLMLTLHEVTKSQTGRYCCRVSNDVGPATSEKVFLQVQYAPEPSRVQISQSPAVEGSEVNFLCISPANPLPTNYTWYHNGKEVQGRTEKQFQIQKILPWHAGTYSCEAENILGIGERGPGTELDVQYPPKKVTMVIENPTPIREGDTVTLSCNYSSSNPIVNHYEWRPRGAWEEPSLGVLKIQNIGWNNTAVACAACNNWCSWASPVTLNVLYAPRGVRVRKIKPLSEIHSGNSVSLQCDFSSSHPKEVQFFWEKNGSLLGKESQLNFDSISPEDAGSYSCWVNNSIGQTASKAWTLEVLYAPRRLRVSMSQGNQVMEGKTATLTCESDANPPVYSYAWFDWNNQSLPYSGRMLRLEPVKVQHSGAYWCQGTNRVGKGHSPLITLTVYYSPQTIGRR
The test can be described thus: ELISA, monkey CD22-ECD-His coated. The procedure: In order to detect the binding activity of CD22 human-murine chimeric antibodies to CD22 protein, the purified human CD22-ECD-His protein obtained in Example 2 was diluted with PBS to a final concentration of 2 μg/mL, and then added to 96-well ELISA plate at 100 μl/well. The plate was sealed with plastic film and incubated overnight at 4° C., the plate was washed 2 times with PBS the next day, and then a blocking solution [PBS+2% (w/w) BSA] was added for blocking at room temperature for 2 hours. […] After incubation at 37° C. for 2 hours, the plate was washed 3 times with PBS. HRP (horseradish peroxidase)-labeled secondary antibody (purchased from Sigma, catalog number: A0170) was added, and incubated at 37° C. for 2 hours, and the plate was washed 5 times with PBS. TMB substrate was added at 50 μl/well, and incubated at room temperature for 30 minutes, then a stop solution (1.0 N HCl) was added at 50 μl/well.
In order to detect the species cross-binding activity of the chimeric antibodies, an ELISA plate was coated with commercial murine CD22 protein (ACROBiosystems, catalog number: SI2-M52Ha) and monkey CD22 protein (ACROBiosystems, catalog number: SI2-R52Ha), respectively, and the ELISA detection was performed according to the method in Example 5.1.

Test [3] deals with T3, monkey CD22 (full length, on HEK293T cells) (monkey).
T3 construct: NCBI XP_014979161.2; also called HEK293T-monkey CD22; HEK293T cells overexpressing monkey CD22
T3 chain: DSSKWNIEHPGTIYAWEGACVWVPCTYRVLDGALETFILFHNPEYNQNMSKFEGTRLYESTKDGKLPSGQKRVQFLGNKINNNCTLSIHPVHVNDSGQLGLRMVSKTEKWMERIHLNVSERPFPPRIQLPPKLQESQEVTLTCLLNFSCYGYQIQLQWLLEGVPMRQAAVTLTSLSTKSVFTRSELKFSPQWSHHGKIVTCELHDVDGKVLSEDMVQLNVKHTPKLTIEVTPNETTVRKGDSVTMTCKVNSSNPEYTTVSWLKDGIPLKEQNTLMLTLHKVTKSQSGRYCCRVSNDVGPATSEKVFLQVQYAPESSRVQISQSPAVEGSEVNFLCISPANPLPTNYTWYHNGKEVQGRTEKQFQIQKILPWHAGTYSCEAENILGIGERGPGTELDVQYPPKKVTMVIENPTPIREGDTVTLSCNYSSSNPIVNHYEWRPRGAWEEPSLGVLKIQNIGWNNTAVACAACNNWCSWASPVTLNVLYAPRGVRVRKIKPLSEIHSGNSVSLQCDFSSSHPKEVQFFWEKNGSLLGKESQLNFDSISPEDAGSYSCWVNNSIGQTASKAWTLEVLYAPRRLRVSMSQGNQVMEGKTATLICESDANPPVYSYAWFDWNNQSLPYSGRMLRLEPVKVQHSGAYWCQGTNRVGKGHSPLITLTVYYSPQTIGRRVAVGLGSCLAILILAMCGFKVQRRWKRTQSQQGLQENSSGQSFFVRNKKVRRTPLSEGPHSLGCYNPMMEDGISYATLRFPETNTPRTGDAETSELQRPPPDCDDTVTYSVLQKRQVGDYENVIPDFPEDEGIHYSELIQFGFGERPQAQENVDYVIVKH
As to the kind of experiment: FACS, HEK293T-monkey CD22 cells (293T as parent cells). From the text: The required cells were scale-up cultured in a T-75 cell culture flask to the logarithmic growth phase. For the adherent cell CHO-K1, the medium was aspirated, the cells were washed 2 times with PBS buffer, and then digested with trypsin. After the digestion was terminated, the cells were washed 2 times with PBS buffer. For suspension cell Raji, the medium supernatant was directly centrifuged and discarded, and the cell pellet was washed 2 times with PBS. After counting the cells in the previous step, the cell pellet was resuspended with [PBS+2% (w/w) BSA] blocking solution to 2×10⁶ cells/ml, and added to a 96-well FACS reaction plate at 50 μl/well, and then the chimeric antibody test sample was added at 50 μl/well, and incubated on ice for 2 hours. The mixture was centrifuged and washed 3 times with PBS buffer, Alexa Flour 488-labeled secondary antibody (purchased from Invitrogen, catalog number: A-11013) was added at 50 μl/well, and incubated on ice for 1 hour. The obtained mixture was centrifuged and washed 5 times with PBS, and FACS (FACS Canto™, purchased from BD Company) was used for detection and result analysis. Data analysis was performed by software (CellQuest) to obtain the mean fluorescence density (MFI)of the cells. And then software (GraphPad Prism8) was used for analysis, data fitting, and EC50 value calculation. […] The same method was used to detect the binding of the chimeric antibodies to endogenous CD22-negative cell MoLT4 cells (purchased from ATCC, CRL-1582) and CHO-K1 cells.
HEK293T-monkey CD22 cells were subjected to FACS detection and data analysis according to the method in Example 5.2.
(In general: In flow cytometry, cells or beads pass a laser one at a time.)

Test [4] has as its target T4, human CD22 domain1-4-His (human, UniProt P20273 20-425).
T4 construct: also called hCD22 domain1-4-His; not shown: His tag
T4 sequence: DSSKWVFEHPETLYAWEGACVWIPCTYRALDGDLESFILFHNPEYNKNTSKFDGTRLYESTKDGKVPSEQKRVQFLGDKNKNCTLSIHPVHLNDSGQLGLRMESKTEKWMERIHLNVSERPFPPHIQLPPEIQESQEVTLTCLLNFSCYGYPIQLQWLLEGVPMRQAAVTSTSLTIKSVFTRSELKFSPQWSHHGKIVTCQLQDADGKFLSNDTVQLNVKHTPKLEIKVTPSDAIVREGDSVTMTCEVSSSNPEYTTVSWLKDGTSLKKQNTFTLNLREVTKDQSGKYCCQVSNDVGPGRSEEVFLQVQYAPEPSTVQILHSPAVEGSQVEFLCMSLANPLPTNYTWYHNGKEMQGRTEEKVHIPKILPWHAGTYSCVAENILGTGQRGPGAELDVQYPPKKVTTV
The test can be described thus: ELISA, plate coated with human CD22 domain1-4-His.

Test [5] deals with T5, human CD22-ECD-His protein (human, UniProt P20273 20-687).
T5 construct: Recombinant, from HEK293E cells; also called hCD22-ECD-His; human CD22-His protein; not shown: His tag
T5 sequence: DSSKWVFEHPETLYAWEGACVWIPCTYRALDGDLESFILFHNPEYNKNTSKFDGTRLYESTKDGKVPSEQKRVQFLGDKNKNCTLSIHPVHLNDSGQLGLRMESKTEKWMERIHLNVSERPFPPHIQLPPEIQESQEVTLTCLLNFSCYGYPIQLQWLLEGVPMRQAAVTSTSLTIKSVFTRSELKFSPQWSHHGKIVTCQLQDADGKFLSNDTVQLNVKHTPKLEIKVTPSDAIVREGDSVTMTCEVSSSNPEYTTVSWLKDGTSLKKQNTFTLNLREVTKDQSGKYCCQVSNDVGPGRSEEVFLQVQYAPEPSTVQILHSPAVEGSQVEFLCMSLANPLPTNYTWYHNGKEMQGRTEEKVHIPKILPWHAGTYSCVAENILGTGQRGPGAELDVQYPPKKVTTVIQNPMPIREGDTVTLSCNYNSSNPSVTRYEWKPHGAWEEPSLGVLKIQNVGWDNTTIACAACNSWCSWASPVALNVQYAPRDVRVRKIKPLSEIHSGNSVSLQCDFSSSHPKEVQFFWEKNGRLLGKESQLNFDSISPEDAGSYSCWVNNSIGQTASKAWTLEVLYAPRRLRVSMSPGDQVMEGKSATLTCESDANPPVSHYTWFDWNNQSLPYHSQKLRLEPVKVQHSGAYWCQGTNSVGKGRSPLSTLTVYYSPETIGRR
As to the kind of experiment: SPR (Biacore), antibody captured on Protein A chip, CD22-ECD-His in solution. The procedure, abridged: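 Antibody captured on Protein A chip, then human CD22-ECD-His injected for 240 s at 30 μL/min, 5 concentrations from 200 nM (1:1 dilution), dissociation up to 600 s, in HBS-EP+ at 25° C. Responses double-referenced; apparent KD and kinetic constants fitted to a Langmuir 1:1 model.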
In general terms: SPR reads the build-up and loss of mass on a sensor chip optically.

B1: m971-hIgG1 (antibody, V domains shown)
VH: QVQLQQSGPGLVKPSQTLSLTCAISGDSVSSNSAAWNWIRQSPSRGLEWLGRTYYRSKWYNDYAVSVKSRITINPDTSKNQFSLQLNSVTPEDTAVYYCAREVTGDLEDAFDIWGQGTMVTVSS
VL: DIQMTQSPSSLSASVGDRVTITCRASQTIWSYLNWYQQRPGKAPNLLIYAASSLQSGVPSRFSGRGSGTDFTLTISSLQAEDFATYYCQQSYSIPQTFGQGTKLEIKR
notes: Control antibody; variable regions from US 8,591,889 B on human IgG1 constant regions
Take B1: the values for the binding result in test [1], in test [2] and in test [3] were “no binding (tested: 100 nM)”, “no binding (tested: 100 nM)” and “no binding (tested: 10 nM)”, respectively.

B2: F2.180.16 (antibody, human IgG1, lambda, V domains shown)
VH: EVKLVESGGGLVLPGGSLKISCAASGFTFSDYYMYWIRQTPDKRLEWVAYISNTGYSTFYPDSVKGRFTVSRDNAKNTLYLQMSRLQSEDTAMYYCARHGILYAMDYWGQGTSVTVSS
VL: QPVLTQSSSASFSLGASAKLTCTLSSQYSTYTIGWYQQQPLKPPKYVMELKHDGSRHTGDGIPDRFSGSSSGADRYLSISNIQPEDEATYICGVGDTIKEQFMYVFGGGTKVTVLG
notes: Chimeric IgG1 lambda
For the molecule B2, in test [4], the binding result is on record as “no binding”. In test [5], this molecule returned a Kd of 18.4 nM, a koff of 0.000155 s⁻¹ and a kon of 8450 M⁻¹ s⁻¹.

B3: F1.60.9 (antibody, human IgG1, kappa, V domains shown)
VH: QVQLKESGPGLVAPSQSLSITCTVSGLSLNNYGVSWVRQPPGKGLEWLGVIWGDGSTNYHSALISRLSISKDNSKSQVFLKLNSLHTDDTATYYCAINWGDYWGQGTTLIVSS
VL: DIKMTQSPSSMNASLGERVTITCKASQDINSYLSWFQQKPGKSPKILIYRANRLIDGVPSRFSGSGSGQDYSLTISSLEYEDMGIYYCLQYGVFPLTFGAGTKLELKR
notes: Chimeric IgG1 kappa
For the molecule B3, in test [4], the binding result is recorded as “no binding”. In test [5], the Kd amounted to 0.254 nM, the koff came to 7.64e-05 s⁻¹ and the kon stood at 301000 M⁻¹ s⁻¹.

The Kd is a measure of binding affinity in units of concentration. As a reminder, the koff is the rate constant with which the complex falls apart. Broadly, the kon is the second-order rate constant of association.
